Experimental data reported in PMC5602538, “Assessment of the Drug Interaction Potential of Unconjugated and GalNAc3-Conjugated 2′-MOE-ASOs” (Molecular Therapy. Nucleic Acids, 2017).
{GalNAc3} = trishexylamino-C6 triantennary GalNAc conjugate

Tested on: CYP2B6 mRNA
Experiment: CYP2B6 mRNA induction in plated human hepatocytes
Conditions: ASO 100 μM, human hepatocytes 72 hr, vs PBS 1% vehicle, mean ± SD of triplicate
Experimental: Upon receipt, sandwich-cultured cryopreserved human hepatocytes (with Matrigel) plated on collagen-coated 24-well plates were inspected under a microscope for general morphology and viability. Fresh culture medium (OptiCulture Hepatocyte Media) was added to each plate that passed the visual inspection. The plates were then placed in an incubator set to 37°C with 5% carbon dioxide (CO2) for overnight acclimation. […] During this time, cells in parallel wells were also treated with 50.0 μM omeprazole (inducer of CYP1A2), 1,000 μM phenobarbital (inducer of CYP2B6), or 10.0 μM rifampicin (inducer of CYP3A4) in triplicate, respectively.
After collection of the supernatant for catalytic analysis, the remaining cells were washed and lysed with QIAGEN Buffer RLT from the QIAGEN RNeasy Kit. […]
The activity of each CYP enzyme was measured by comparing the peak area ratio of the corresponding product to the peak area ratio of the internal standard. The fold induction was calculated by dividing the peak area ratio of each individual well from the treatment group by the mean of the peak area ratios obtained from the vehicle control wells. […] The ΔCƬ was calculated as follows: ΔCƬ = CƬ (CYP) − CƬ (GAPDH). […] The ΔΔCƬ was calculated as follows: ΔΔCƬ = Δ CƬ (Treatment) − Δ CƬ (Vehicle). The fold induction of the target CYP was calculated using the following equation: Fold=2^-ΔΔCT.

## ISIS 681257: 20-mer 2′-MOE gapmer PS/PO mixed backbone ASO conjugated to 5′-trishexylamino GalNAc3, targets Lp(a), sequence TGCTCCGTTGGTGCTTGTTC (5' {GalNAc3}, sugars by position and backbone not given here; 2'-MOE gapmer with mixed PS/PO backbone)
  Fold induction of CYP2B6 mRNA: 1.36 ± 0.347 fold
